According to patent US20190000885A1 (GENERAL HOSPITAL, published 2019):

Molecular target: T1, RNase/ANG inhibitor 1 (RNH1), endogenous protein in sorted mouse LKS cells and myeloid-restricted progenitors (mouse, UniProt Q91VI7 1-456)
T1 sequence (looked up): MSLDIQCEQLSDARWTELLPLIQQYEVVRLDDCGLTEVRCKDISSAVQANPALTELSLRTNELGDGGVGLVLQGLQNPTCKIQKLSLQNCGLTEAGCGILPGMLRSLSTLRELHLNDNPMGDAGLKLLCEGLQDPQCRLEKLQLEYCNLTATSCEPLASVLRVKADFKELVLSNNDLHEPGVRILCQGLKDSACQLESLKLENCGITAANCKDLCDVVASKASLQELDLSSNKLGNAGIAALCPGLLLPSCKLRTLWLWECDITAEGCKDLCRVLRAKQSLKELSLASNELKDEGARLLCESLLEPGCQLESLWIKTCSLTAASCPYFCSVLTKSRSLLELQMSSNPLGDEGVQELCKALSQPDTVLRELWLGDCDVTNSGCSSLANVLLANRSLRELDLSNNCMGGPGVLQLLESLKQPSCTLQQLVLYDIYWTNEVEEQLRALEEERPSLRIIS
Experiment: double immunofluorescence and acceptor-photobleaching FRET (AF488 donor, AF555 acceptor) on fixed sorted mouse cells
Protocol: For ANG/RNH1 localization, cells were stained with an in-house made mouse ANG-specific C527 monoclonal antibody (10 μg/ml) and R127 rabbit pAb of RNH1 (5 μg/ml), followed with AF488-conjugated rabbit anti-mouse (Thermo Scientific A11059, 1:600 dilution) and AF555-conjugated goat anti-rabbit (Thermo Scientific A21428, 1:600 dilution). Appropriate isotype controls were used at the same concentration. Images were acquired using Nikon A1R confocal microscopy.
FRET was performed using the acceptor photo-bleaching method, as previously described (Pizzo et al., 2013). Briefly, AF488 was used as the donor and AF555 as the acceptors. Signals were photobleached to less than 10% of the initial fluorescent measurement. ROI measurements from LKS cells and myeloid-restricted progenitors were taken from 10 individual cells. FRET efficiency was calculated using the formula […], where ID and IDA are fluorescence intensities before and after photobleaching, respectively. FRET was performed using Leica SP2 confocal microscopy.
The exact subcellular compartment where tiRNA is produced by ANG is currently unknown, but it has been shown that tiRNA production is correlated to SG localization of ANG in stressed cells (Pizzo et al., 2013). […]

B1: Angiogenin (ANG), endogenous mouse protein in sorted LKS cells and myeloid-restricted progenitors (enzyme, UniProt P21570 25-145, looked up)
chain: QDDSRYTKFLTQHHDAKPKGRDDRYCERMMKRRSLTSPCKDVNTFIHGNKSNIKAICGANGSPYRENLRMSKSPFQVTTCKHTGGSPRPPCQYRASAGFRHVVIACENGLPVHFDESFFSL
notes: Endogenous intracellular protein, not the recombinant ANG preparation; also called ribonuclease 5; RNase5
B1: binds.
